Article PMC7331820, “Identification of the amino acid position controlling the different enzymatic activities in walnut tyrosinase isoenzymes (jrPPO1 and jrPPO2)” (Scientific Reports, 2020)
Values belong to the molecule of their own block, whether it stands above or below them.

Assays:
Experiment in all cases: photometric initial rates, Michaelis-Menten fit
jrPPO2 = target: T1, jrPPO2 (Juglans regia, UniProt A0A2I4DDQ0, D361N/F398L/S401P/D582N); format: biochemical; details: pH 6.0, 50 mM sodium phosphate, 2.5 mM SDS as activator, 25 °C
T1 construct: gene LOC108979139; latent enzyme (active domain plus C-terminal domain, no transit peptide), E. coli, pGEX-6P-1, N-terminal GST tag (absent by mass)
Text: (§1) photometric initial rates, Michaelis-Menten fit on jrPPO2

jrPPO1 = target: T2, jrPPO1 (Juglans regia, UniProt C0LU17); format: biochemical; details: pH 6.0, 50 mM sodium phosphate, 2.0 mM SDS as activator, 25 °C
T2 construct: gene PPO1; latent enzyme (active domain plus C-terminal domain, no transit peptide), expressed in E. coli from pGEX-6P-1 with N-terminal GST tag (tag absent by mass)
T2 sequence (C0LU17 entry or part of it): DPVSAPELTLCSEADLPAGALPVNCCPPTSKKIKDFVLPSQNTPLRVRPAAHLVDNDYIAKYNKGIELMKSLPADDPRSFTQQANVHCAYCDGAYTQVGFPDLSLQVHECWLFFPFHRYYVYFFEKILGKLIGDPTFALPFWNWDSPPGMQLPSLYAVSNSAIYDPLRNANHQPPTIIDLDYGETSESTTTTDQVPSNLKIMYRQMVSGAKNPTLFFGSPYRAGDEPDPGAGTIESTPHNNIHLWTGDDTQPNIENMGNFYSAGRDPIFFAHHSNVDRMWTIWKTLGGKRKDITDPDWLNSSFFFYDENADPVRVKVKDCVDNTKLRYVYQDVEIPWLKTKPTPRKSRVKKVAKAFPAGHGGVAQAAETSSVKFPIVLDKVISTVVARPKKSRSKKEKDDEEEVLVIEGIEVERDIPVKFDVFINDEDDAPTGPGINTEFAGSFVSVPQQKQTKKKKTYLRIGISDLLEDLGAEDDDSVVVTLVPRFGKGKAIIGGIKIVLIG
Text: (§2) photometric initial rates, Michaelis-Menten fit on jrPPO1

[1] = substrate: NCCc1ccc(O)c(O)c1; format: biochemical, Juglans regia; details: pH 6.0, 50 mM sodium phosphate, 2.0 mM SDS as activator, 25 °C
Text: as §2

[2] = substrate: CCOC(=O)c1cc(O)c(O)c(O)c1; format: biochemical, Juglans regia; details: pH 6.0, 50 mM sodium phosphate, 2.5 mM SDS as activator, 25 °C
Text: as §1

[3] = substrate: NCCc1ccc(O)c(O)c1; format: biochemical, Juglans regia; details: pH 6.0, 50 mM sodium phosphate, 2.5 mM SDS as activator, 25 °C
Text: as §1

[4] = substrate: NCCc1ccc(O)cc1; format: biochemical, Juglans regia; details: pH 6.0, 50 mM sodium phosphate, 2.5 mM SDS as activator, 25 °C
Text: as §1

[5] = substrate: N[C@@H](Cc1ccc(O)c(O)c1)C(=O)O; format: biochemical, Juglans regia; details: pH 6.0, 50 mM sodium phosphate, 2.5 mM SDS as activator, 25 °C
Text: as §1

[6] = substrate: O=C(O)/C=C/c1ccc(O)c(O)c1; format: biochemical, Juglans regia; details: pH 6.0, 50 mM sodium phosphate, 2.5 mM SDS as activator, 25 °C
Text: as §1

[7] = substrate: O=C(O)/C=C/c1ccc(O)cc1; format: biochemical, Juglans regia; details: pH 6.0, 50 mM sodium phosphate, 2.5 mM SDS as activator, 25 °C
Text: as §1

[8] = substrate: O=C(O)Cc1ccc(O)cc1; format: biochemical, Juglans regia; details: pH 6.0, 50 mM sodium phosphate, 2.5 mM SDS as activator, 25 °C
Text: as §1

[9] = substrate: O=C(O)c1cc(O)c(O)c(O)c1; format: biochemical, Juglans regia; details: pH 6.0, 50 mM sodium phosphate, 2.5 mM SDS as activator, 25 °C
Text: as §1

[10] = substrate: O=C(O)c1ccc(O)c(O)c1; format: biochemical, Juglans regia; details: pH 6.0, 50 mM sodium phosphate, 2.5 mM SDS as activator, 25 °C
Text: as §1

[11] = substrate: O=C1c2c(O)cc(O)cc2O[C@H](c2ccc(O)c(O)c2)[C@H]1O; format: biochemical, Juglans regia; details: pH 6.0, 50 mM sodium phosphate, 2.5 mM SDS as activator, 10% DMSO, 25 °C
Text: as §1

Km (jrPPO2): 1000 ± 120 µM | Km (jrPPO1): 1200 ± 130 µM
Molecule: Oc1cccc(O)c1O [compound 1, Pyrogallol]

B1: jrPPO1 (Juglans regia; N340G) (protein)
chain: DPVSAPELTLCSEADLPAGALPVNCCPPTSKKIKDFVLPSQNTPLRVRPAAHLVDNDYIAKYNKGIELMKSLPADDPRSFTQQANVHCAYCDGAYTQVGFPDLSLQVHECWLFFPFHRYYVYFFEKILGKLIGDPTFALPFWNWDSPPGMQLPSLYAVSNSAIYDPLRNANHQPPTIIDLDYGETSESTTTTDQVPSNLKIMYRQMVSGAKNPTLFFGSPYRAGDEPDPGAGTIESTPHGNIHLWTGDDTQPNIENMGNFYSAGRDPIFFAHHSNVDRMWTIWKTLGGKRKDITDPDWLNSSFFFYDENADPVRVKVKDCVDNTKLRYVYQDVEIPWLKTKPTPRKSRVKKVAKAFPAGHGGVAQAAETSSVKFPIVLDKVISTVVARPKKSRSKKEKDDEEEVLVIEGIEVERDIPVKFDVFINDEDDAPTGPGINTEFAGSFVSVPQQKQTKKKKTYLRIGISDLLEDLGAEDDDSVVVTLVPRFGKGKAIIGGIKIVLIG
notes: latent enzyme (active domain plus C-terminal domain, no transit peptide), expressed in E. coli from pGEX-6P-1 with N-terminal GST tag (tag absent by mass)
Km [1]: 490 ± 70 µM | kcat [1]: 300 ± 16.5 s⁻¹ | kcat/Km [1]: 612000 ± 93700 M⁻¹ s⁻¹

B2: jrPPO2 (Juglans regia; D361N/D582N/F398L/S401P) (protein)
chain: APVSAPDITKCGKADFPAGAKPTNCCPPPSTKIIDFKLPTKNSPLRVRPAAHLADKEYIAKYNKAIELMKALPADDPRNFTQQANVHCAYCDGAYEQVGFPNLDLQVHNSWLFFPFHRYYLYFYEKILGKLIGDPTFALPFWNWDAPAGMQLPAMYANPKSSLYDALRNANHQPPTLMDLDYNGTDEETTSQDQLSANLSIMYRQMVSNGKNAKLFLGSAYRAGDEPDPGAGSIENIPHGPVHIWTGDNTQPNLENMGNFYSAGRDPIFFAHHSNVDRMWSIWKTLGGKRTDLTEPDWLNAGFLFYDENGQAVRVKVKDCLDTTKLGYVYQDVDLPWLKSKPTRKSKLKKVAKFFHLGHQGDVAIAAETSPSVNFPIVLDKVISTVVARPRKSRSKKEKEDEEEVLVIGAIEFDRDAPVKFDVFINDEDDSPTTRPDKTEFAGSFVNVPHKHKHGKKMNTCLRLGISDLLEDLDAENDDTIVVTLVPRYGKGLASINGIKIELLD
notes: latent enzyme (active domain plus C-terminal domain, no transit peptide), E. coli, pGEX-6P-1, N-terminal GST tag (absent by mass)
Km [2]: 6600 ± 790 µM | kcat [2]: 59.5 ± 3.89 s⁻¹ | kcat/Km [2]: 9020 ± 1220 M⁻¹ s⁻¹ | Km [3]: 790 ± 170 µM | kcat [3]: 186 ± 19.1 s⁻¹ | kcat/Km [3]: 235000 ± 56100 M⁻¹ s⁻¹ | Km [4]: 490 ± 110 µM | kcat [4]: 9.14 ± 0.83 s⁻¹ | kcat/Km [4]: 18700 ± 4650 M⁻¹ s⁻¹ | Km [5]: 5660 ± 700 µM | kcat [5]: 132 ± 7.05 s⁻¹ | kcat/Km [5]: 23300 ± 3140 M⁻¹ s⁻¹ | Km [6]: 210 ± 20 µM | kcat [6]: 8.37 ± 0.2 s⁻¹ | kcat/Km [6]: 39900 ± 3910 M⁻¹ s⁻¹ | Km [7]: 940 ± 120 µM | kcat [7]: 0.37 ± 0.02 s⁻¹ | kcat/Km [7]: 390 ± 50 M⁻¹ s⁻¹ | Km [8]: 4430 ± 550 µM | kcat [8]: 32.3 ± 2.18 s⁻¹ | kcat/Km [8]: 7290 ± 1030 M⁻¹ s⁻¹ | Km [9]: 180 ± 40 µM | kcat [9]: 2.07 ± 0.18 s⁻¹ | kcat/Km [9]: 11500 ± 2740 M⁻¹ s⁻¹ | Km [10]: 90 ± 20 µM | kcat [10]: 9.84 ± 0.52 s⁻¹ | kcat/Km [10]: 109000 ± 25000 M⁻¹ s⁻¹ | Km [11]: 920 ± 150 µM | kcat [11]: 19.6 ± 2.04 s⁻¹ | kcat/Km [11]: 21300 ± 4120 M⁻¹ s⁻¹

B3: jrPPO2 (Juglans regia; D361N/D582N/F398L/G345N/S401P) (protein)
chain: APVSAPDITKCGKADFPAGAKPTNCCPPPSTKIIDFKLPTKNSPLRVRPAAHLADKEYIAKYNKAIELMKALPADDPRNFTQQANVHCAYCDGAYEQVGFPNLDLQVHNSWLFFPFHRYYLYFYEKILGKLIGDPTFALPFWNWDAPAGMQLPAMYANPKSSLYDALRNANHQPPTLMDLDYNGTDEETTSQDQLSANLSIMYRQMVSNGKNAKLFLGSAYRAGDEPDPGAGSIENIPHNPVHIWTGDNTQPNLENMGNFYSAGRDPIFFAHHSNVDRMWSIWKTLGGKRTDLTEPDWLNAGFLFYDENGQAVRVKVKDCLDTTKLGYVYQDVDLPWLKSKPTRKSKLKKVAKFFHLGHQGDVAIAAETSPSVNFPIVLDKVISTVVARPRKSRSKKEKEDEEEVLVIGAIEFDRDAPVKFDVFINDEDDSPTTRPDKTEFAGSFVNVPHKHKHGKKMNTCLRLGISDLLEDLDAENDDTIVVTLVPRYGKGLASINGIKIELLD
notes: as for B2
Km [4]: 210 ± 60 µM | kcat [4]: 10.9 ± 0.71 s⁻¹ | kcat/Km [4]: 51900 ± 15300 M⁻¹ s⁻¹
